# PMC6333238, “The biosynthetic implications of late-stage condensation domain selectivity during glycopeptide antibiotic biosynthesis” (Chemical Science, 2018)
# System: T1, N[C@H](C(=O)O)c1cc(O)cc(O)c1
# T1 construct: full-length final NRPS module C-A-PCP-X-TE, MBP fusion (pET-MBP-1c), Ni-NTA and SEC, E. coli, co-expressed with Tcp17; holo form (PCP loaded with phosphopantetheine by Sfp R4-4); with MbtH-like protein Tcp17
# Assay: coupled PPi-release A-domain assay (PPi-PFK/aldolase/TPI/GDH, NADH)
# Type: biochemical, Actinoplanes teichomyceticus
# Conditions: holo form, 0.5 mM ATP, 1 mM MgCl2, pH 7.4, 0.1 mM EDTA, enzyme 1 μM
# Tcp12 (Actinoplanes teichomyceticus), sequence (chain, as listed by the source): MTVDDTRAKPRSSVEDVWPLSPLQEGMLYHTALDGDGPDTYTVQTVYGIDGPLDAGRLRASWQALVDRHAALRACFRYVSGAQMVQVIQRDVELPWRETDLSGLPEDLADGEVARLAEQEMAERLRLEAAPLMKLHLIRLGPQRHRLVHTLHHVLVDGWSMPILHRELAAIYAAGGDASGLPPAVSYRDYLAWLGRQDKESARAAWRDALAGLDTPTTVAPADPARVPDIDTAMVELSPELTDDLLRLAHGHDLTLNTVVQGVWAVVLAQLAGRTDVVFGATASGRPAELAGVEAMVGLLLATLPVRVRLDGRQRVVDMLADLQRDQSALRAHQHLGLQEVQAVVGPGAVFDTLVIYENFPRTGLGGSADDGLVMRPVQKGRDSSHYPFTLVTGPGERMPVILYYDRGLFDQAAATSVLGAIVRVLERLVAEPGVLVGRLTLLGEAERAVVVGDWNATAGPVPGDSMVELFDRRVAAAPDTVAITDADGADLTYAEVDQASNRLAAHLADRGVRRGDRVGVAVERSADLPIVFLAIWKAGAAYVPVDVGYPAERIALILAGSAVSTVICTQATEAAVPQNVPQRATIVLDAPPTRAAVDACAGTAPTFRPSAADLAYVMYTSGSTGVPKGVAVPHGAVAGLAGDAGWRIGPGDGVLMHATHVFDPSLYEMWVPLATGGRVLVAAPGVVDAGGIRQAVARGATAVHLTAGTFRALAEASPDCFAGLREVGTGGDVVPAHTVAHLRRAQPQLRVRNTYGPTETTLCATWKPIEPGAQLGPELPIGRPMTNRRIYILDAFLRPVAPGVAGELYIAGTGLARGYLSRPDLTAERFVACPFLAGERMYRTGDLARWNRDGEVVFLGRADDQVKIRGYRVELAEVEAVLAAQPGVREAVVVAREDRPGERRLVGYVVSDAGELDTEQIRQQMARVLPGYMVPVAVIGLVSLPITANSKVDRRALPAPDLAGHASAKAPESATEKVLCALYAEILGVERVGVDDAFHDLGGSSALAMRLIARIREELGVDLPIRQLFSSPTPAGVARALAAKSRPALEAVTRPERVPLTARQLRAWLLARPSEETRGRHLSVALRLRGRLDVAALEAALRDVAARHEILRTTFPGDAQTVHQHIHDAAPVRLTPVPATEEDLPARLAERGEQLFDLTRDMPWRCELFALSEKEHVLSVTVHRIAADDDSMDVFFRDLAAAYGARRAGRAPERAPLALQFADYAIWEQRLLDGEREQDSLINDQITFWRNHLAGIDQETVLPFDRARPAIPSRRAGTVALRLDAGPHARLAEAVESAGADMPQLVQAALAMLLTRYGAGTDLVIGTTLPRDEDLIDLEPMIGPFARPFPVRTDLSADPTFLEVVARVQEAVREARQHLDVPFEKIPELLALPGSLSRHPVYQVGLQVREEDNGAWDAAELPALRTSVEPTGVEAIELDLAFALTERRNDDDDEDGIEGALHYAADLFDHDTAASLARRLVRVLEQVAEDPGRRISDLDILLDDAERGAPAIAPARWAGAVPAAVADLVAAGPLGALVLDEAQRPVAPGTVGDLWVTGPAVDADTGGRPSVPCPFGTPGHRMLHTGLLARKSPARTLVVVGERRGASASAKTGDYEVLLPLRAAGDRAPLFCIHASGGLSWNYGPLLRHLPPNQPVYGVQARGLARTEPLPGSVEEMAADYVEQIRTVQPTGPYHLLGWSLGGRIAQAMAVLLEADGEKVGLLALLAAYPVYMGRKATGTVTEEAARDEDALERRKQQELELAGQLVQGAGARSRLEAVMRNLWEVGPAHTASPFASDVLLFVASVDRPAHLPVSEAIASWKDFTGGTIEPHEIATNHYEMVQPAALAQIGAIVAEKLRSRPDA
substance,measurement,value
Tcp12 (Actinoplanes teichomyceticus),Km,4 ± 0.1 µM
same,kcat,0.01867 ± 0.000167 s⁻¹
